Measured values taken from patent US9243044B2, “Anticoagulant polypeptide and applications thereof” (GUANGDONG MEDICAL COLLEGE, priority 2011, dated 2016).

T1: human fXIIa (Homo sapiens, UniProt P00748)
T1 construct: Human coagulation factors IIa (thrombin), Xa, XIa, XIIa, EGR-fXa; purchased Haematologic Technologies Inc (United States)
T1 sequence (P00748 373-615 limits assumed): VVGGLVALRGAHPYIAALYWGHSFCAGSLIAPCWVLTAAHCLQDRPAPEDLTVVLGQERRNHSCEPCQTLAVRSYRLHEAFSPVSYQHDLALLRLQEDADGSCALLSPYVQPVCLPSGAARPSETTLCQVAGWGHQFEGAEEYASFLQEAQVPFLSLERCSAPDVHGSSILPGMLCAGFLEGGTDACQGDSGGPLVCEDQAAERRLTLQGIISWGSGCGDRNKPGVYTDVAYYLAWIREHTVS
T1 sequence (P00748 20-372 limits assumed): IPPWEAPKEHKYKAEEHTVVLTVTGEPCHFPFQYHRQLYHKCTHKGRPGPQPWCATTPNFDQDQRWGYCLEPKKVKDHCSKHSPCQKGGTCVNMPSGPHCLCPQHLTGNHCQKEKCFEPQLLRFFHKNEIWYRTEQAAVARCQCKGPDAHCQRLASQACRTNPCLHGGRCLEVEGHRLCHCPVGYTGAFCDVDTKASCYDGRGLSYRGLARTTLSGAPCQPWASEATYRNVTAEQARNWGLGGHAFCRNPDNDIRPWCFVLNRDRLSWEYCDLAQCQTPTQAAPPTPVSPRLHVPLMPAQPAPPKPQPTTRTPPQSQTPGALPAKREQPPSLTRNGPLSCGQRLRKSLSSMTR

B1: NAPTin-5 (protein)
chain: NPSCGENERHDECSRKECDPKCKYDGTEEKDDEKPVVCLTRVCYGDCICRDGFLRNKNGACVKAEDCEL
modifications: Sequence derived from Ancylostoma caninum or Synthetic
B2: NAPTin-7 (protein)
chain: NPSCGENERHDECSRKECDPKCKYDGTEEKDDEKPVVCLTRVCYGDCICRDGFLRNKNGACVKAEDC
modifications: Sequence derived from Ancylostoma caninum or Synthetic
B3: NAPTin-3 (protein)
chain: NPSCGENERHDECSRKECDPKCKYDGTEEKDDEKPVVCLTRVCYGDCICRDGFLRNKNGACVKAEDCELDNM
modifications: Sequence derived from Ancylostoma caninum or Synthetic

Key:
SD rats = test: Rat arterio-venous shunt thrombus formation model; type: in vivo; conditions: 100 U·kg^−1 i.v.
Procedure: 50 SPF grade male SD rats (provided by the laboratory animal center of Guangdong Medical College, 300-350 g body weight) were randomly divided into saline control group, positive control group (100 U·kg^−1 heparin sodium, Shanghai No. 1 Biochemical & Pharmaceutical Co. Ltd), and rNAPT-1 low dose (100 μg·kg^−1), middle dose (1 mg·kg^−1), high dose group (5 mg·kg^−1), 10 rats each group, respectively. These rats were anaesthetized with 10% chloral hydrate (250 mg/kg) by intraperitoneal injection. The right common carotid artery and left external jugular vein was exposed and dissected bluntly from the surrounding tissue after a surgical incision. One end of a polyethylene pipe (1.5 mm of diameter, 22 cm of length) with a 5 cm length of No. 4 operation suture in it and filled with 50 U/mL heparin solution was inserted into the right common carotid artery, and the other end was inserted into the left external […] vein. 5 min after tail intravenous injection of drugs, the artery clamp was opened, and blood flow from the right common carotid artery to the left external jugular vein through the polyethylene pipe. After 15 min of blood flow, the suture line was quickly removed and weighed. The net weight of thrombus is total weight minus suture weight; inhibition rate=(wet weight of thrombus of saline control group−wet weight of thrombus of administration group)/wet weight of thrombus of saline control group×100%.

human fXa = target: T2, human fXa (Homo sapiens, UniProt P00742); test: Chromogenic assay, fXa; type: biochemical
T2 construct: Human coagulation factors IIa (thrombin), Xa, XIa, XIIa, EGR-fXa; purchased Haematologic Technologies Inc (United States)
T2 sequence (P00742 41-179 limits assumed): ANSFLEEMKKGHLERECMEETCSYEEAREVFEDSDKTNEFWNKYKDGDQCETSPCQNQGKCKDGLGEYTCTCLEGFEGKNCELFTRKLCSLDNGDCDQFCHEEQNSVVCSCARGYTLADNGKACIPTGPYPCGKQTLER
T2 sequence (P00742 235-488 limits assumed): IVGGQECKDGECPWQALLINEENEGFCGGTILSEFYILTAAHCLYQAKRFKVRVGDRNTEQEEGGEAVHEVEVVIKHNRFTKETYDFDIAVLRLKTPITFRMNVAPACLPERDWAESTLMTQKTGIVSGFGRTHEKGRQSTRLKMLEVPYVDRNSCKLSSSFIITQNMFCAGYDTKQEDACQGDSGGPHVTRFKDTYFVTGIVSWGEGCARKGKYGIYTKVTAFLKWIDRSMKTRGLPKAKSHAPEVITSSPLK
Description: (§1) The recombinant anticoagulant polypeptides in the present invention were expressed in E. coli and purified in our laboratory, of which the activities against coagulation factors were investigated by chromogenic assays. Human coagulation factors IIa (thrombin), Xa, XIa, XIIa, EGR-fXa were products of Haematologic Technologies Inc (United States). Recombinant fVIIa was products of Novo-Nordisk (Denmark). Recombinant soluble tissue factor (sTF) was purchased from Protgen (Beijing, China). The following chromogenic substrates were used for these coagulation factor assays: S2765 for human fXa, S2288 for human fVIIa and fIIa, 52366 for human fXIa and fXIIa, respectively.
(§2) The chromogenic assays were carried out in a total reaction volume of 100 μl in individual wells of a 96-well microtiter plate. 50 μl fIIa, fXa, fXIa, or fXIIa (final concentration: 1 nM) was incubated with 10 μl recombinant anticoagulant polypeptide at various concentrations (or PBS control group) Assays for the detection activity of fVIIa: 50 μl fVIIa+TF (1 μM) and EGR-fXa (final concentration 500 nM) was incubated for 15 mins at 25° C., respectively. After the addition of 40 μl of prewarmed chromogenic substrate to a final concentration of 400 μM, the changes of absorbance at 405 nm were monitored by using an E1x808 kinetic microtiter reader. The data were used to calculate the velocities of response.

fVIIa/TF = target: T3, fVIIa/TF (Homo sapiens, UniProt P08709); test: Chromogenic assay, fVIIa/TF; type: biochemical
T3 construct: Recombinant fVIIa was products of Novo-Nordisk (Denmark); purchased Novo-Nordisk (Denmark) for fVIIa; Protgen (Beijing, China) for sTF; Haematologic Technologies Inc for EGR-fXa
T3 sequence (P08709 61-212 limits assumed): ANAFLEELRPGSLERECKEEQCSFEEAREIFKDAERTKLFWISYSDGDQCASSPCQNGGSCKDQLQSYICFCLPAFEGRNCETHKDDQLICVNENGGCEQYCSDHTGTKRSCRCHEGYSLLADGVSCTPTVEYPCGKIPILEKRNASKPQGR
T3 sequence (P08709 213-466 limits assumed): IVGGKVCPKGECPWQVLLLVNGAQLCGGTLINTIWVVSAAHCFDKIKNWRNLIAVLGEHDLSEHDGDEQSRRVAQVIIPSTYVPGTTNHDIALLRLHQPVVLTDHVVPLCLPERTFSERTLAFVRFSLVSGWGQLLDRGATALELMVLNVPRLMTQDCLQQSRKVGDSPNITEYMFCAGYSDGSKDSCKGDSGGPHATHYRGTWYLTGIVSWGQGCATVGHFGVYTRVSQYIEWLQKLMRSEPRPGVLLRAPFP
T3 sequence (P13726 33-251 partner limits assumed): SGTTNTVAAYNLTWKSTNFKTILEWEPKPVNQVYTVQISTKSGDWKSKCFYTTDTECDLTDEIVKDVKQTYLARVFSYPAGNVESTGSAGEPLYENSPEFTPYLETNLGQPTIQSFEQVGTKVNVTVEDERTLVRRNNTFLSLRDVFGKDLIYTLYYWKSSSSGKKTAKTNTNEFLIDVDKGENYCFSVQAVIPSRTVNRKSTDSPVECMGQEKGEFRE
Description: as §1, §2

human fIIa (thrombin) = target: T4, human fIIa (thrombin) (Homo sapiens, UniProt P00734); test: Chromogenic assay, fIIa (thrombin); type: biochemical
T4 construct: Human coagulation factors IIa (thrombin), Xa, XIa, XIIa, EGR-fXa; purchased Haematologic Technologies Inc (United States)
Description: as §1, §2

normal human plasma [1] = test: PT assay in normal human plasma; type: biochemical; conditions: for prolongation of PT (in words): 100 nM and 500 nM; for PT: normal human plasma
Procedure: (§3) The recombinant anticoagulant polypeptides were expressed in Escherichia coli and purified in our laboratory. Anticoagulant activity was determined by measuring the aPTT and PT.
For the PT assay, 10 μl recombinant protein at various concentration was mixed with 45 μl normal human plasma and incubated for 15 mins at 37° C. 45 μl prewarmed PT reagent (MDC Hemostasis, Germany) was then added and the clotting time was measured with the absorbance at 630 nm by using an E1x808 kinetic microtiter reader (BioTek, United States). Each concentration was repeated 3 times.

BALb/c mice = test: Mouse tail bleeding time; type: in vivo; conditions: tail transected after 10 min
Procedure: After 10 min, the distal tip 1.5 mm of the mouse tail was transected and the blood oozed was soaked with filter paper very 30 seconds until the bleeding stops. The bleeding time was defined as the time elapsed from the tail transection to the stoppage of bleeding.

human fXIa = target: T5, human fXIa (Homo sapiens, UniProt P03951); test: Chromogenic assay, fXIa; type: biochemical; conditions: for inhibition of the activity of fXIa: 100 nM; for inhibition of the activity of fXIa (in words): 200 nM
T5 construct: Human coagulation factors IIa (thrombin), Xa, XIa, XIIa, EGR-fXa; purchased Haematologic Technologies Inc (United States)
T5 sequence (P03951 19-387 limits assumed): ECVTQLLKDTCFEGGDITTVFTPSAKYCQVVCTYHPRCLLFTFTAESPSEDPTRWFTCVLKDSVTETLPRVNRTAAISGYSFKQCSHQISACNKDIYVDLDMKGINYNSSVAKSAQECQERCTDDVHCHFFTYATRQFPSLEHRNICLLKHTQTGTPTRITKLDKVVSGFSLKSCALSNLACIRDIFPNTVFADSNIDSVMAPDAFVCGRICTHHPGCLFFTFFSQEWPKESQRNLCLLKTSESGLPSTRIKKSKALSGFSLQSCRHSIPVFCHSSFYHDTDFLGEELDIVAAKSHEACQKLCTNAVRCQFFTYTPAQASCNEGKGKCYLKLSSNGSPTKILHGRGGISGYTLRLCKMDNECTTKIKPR
T5 sequence (P03951 388-625 limits assumed): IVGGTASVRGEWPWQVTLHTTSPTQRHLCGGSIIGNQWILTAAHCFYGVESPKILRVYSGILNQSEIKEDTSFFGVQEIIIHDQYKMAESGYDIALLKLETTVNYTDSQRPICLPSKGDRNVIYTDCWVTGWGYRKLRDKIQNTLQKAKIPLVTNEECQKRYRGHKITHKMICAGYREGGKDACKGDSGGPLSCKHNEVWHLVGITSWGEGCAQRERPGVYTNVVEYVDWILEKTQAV
Description: as §1, §2

human fXIIa = target: T1, human fXIIa; test: Chromogenic assay, fXIIa; type: biochemical
Description: as §1, §2

normal human plasma [2] = test: aPTT assay in normal human plasma; type: biochemical; conditions: for prolongation of aPTT (in words): 100 nM and 500 nM; for aPTT: normal human plasma; for multiples of prolonging aPTT: ratio of mean aPTT to blank control
Procedure: as §3
For the aPTT assay, 10 μl recombinant protein at various concentrations was mixed with 50 μl fresh normal human plasma, 20 μl aPTT reagent (MDC Hemostasis, Germany) and incubated for 15 mins at 37° C. 20 μl 0.05 mol/L prewarmed CaCl2 was then added to initiate the clotting reaction. The clotting time was measured with the absorbance at 630 nm by using an E1x808 kinetic microtiter reader (BioTek, United States). Each concentration was repeated 3 times. The ratio of the mean aPTT value of each concentration to blank control group is multiples of prolonging the aPTT.

Molecule	effect on fXa activity (in words) (human fXa; 100 nM)	effect on fXa activity (in words) (human fXa; 200 nM)	effect on fVIIa/TF activity (in words) (fVIIa/TF; 100 nM)	effect on fVIIa/TF activity (in words) (fVIIa/TF; 200 nM)	effect on fIIa activity (in words) (human fIIa (thrombin); 100 nM)	effect on fIIa activity (in words) (human fIIa (thrombin); 200 nM)	prolongation of PT (in words) (normal human plasma [1])	PT (normal human plasma [1]; 100 nM) [s]	PT (normal human plasma [1]; 500 nM) [s]	Bleeding time (BALb/c mice; 100 μg·kg^−1 tail vein) [min]	Bleeding time (BALb/c mice; 1 mg·kg^−1 tail vein) [min]	Bleeding time (BALb/c mice; 5 mg·kg^−1 tail vein) [min]	inhibition of the activity of fXIa (human fXIa)	inhibition of the activity of fXIa (in words) (human fXIa)	effect on fXIIa activity (in words) (human fXIIa; 100 nM)	effect on fXIIa activity (in words) (human fXIIa; 200 nM)	prolongation of aPTT (in words) (normal human plasma [2])	aPTT (normal human plasma [2]; 100 nM) [s]	multiples of prolonging aPTT (normal human plasma [2]; 100 nM)	aPTT (normal human plasma [2]; 500 nM) [s]	further results
heparin sodium [reference compound]																					wet weight of thrombus (SD rats): 14.2 ± 3.6 mg; Inhibition rate % (SD rats; vs saline control): 74.3%
B1	without affecting	without affecting	without affecting	without affecting	without affecting	without affecting	couldn't prolong PT	12.2 ± 0.6	12.6 ± 0.4	8.30 ± 2.3	8.31 ± 1.0	8.33 ± 2.4	more than 90%	almost completely inhibited	without affecting	without affecting	significantly prolong aPTT	77.9 ± 2.9	1.94	226.8 ± 6.6	multiples of prolonging aPTT (normal human plasma [2]; 500 nM): 5.66
B2	without affecting	without affecting	without affecting	without affecting	without affecting	without affecting	couldn't prolong PT	11.7 ± 0.5	12.7 ± 0.4	8.30 ± 2.0	8.26 ± 1.9	8.31 ± 2.2	more than 90%	almost completely inhibited	without affecting	without affecting	significantly prolong aPTT	78.7 ± 8.1	1.96	218.3 ± 5.9	multiples of prolonging aPTT (normal human plasma [2]; 500 nM): 5.44
B3	without affecting	without affecting	without affecting	without affecting	without affecting	without affecting	couldn't prolong PT	13.5 ± 0.4	12.3 ± 0.8	8.38 ± 1.3	8.29 ± 2.5	8.32 ± 1.8	more than 90%	almost completely inhibited	without affecting	without affecting	significantly prolong aPTT	83.0 ± 1.2	2.07	219.3 ± 6.2	multiples of prolonging aPTT (normal human plasma [2]; 500 nM): 5.47
